Eight molecules from patent US20210269531A1 (TSINGHUA UNIVERSITY, published 2021) can be followed below.

Test [1] concerns the target human TrkB on CHO cells (hTrkB-CHO cells) (human) (UniProt Q16620). In words: cell-based or functional assay.
The target in test [2] is T1, TrkB full length (FL, WT) conjugated with GFP, expressed in 293T cells (UniProt Q16620 32-822).
T1 construct: whole, on cells; The protein stood in cell lysate, not on whole cells; the numbering of the truncation (366-822) fits human TrkB; not shown: GFP
T1 sequence (Q16620 32-822): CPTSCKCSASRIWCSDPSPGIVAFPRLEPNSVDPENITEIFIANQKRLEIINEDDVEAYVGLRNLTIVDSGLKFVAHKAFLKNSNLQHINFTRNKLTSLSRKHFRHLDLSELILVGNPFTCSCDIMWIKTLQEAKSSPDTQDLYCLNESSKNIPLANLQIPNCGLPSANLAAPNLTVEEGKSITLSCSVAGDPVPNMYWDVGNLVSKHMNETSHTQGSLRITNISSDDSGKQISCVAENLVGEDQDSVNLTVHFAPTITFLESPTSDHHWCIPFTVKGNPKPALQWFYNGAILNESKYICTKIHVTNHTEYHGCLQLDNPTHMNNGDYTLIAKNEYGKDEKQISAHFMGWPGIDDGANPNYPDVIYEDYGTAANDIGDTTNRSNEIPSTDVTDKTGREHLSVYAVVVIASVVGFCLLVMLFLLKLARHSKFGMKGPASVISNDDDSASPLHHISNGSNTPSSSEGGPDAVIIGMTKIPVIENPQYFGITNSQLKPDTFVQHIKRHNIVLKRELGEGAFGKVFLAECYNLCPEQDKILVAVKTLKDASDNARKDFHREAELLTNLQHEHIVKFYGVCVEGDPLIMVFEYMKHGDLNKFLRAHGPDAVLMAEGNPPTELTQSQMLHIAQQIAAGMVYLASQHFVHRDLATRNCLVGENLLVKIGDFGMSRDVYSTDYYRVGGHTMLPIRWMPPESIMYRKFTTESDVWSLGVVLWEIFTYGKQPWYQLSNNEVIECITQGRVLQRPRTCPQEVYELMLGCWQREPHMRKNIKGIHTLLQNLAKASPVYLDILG
In words: immunoprecipitation of GFP-tagged full-length and truncated TrkB from 293T lysates; binding domain. As to the method:
Cell were washed by cold PBS for 3 times and were lysed in buffer containing 50 mM Tris-HCl (pH 8.0), 250 mM NaCl, 1% NP-40, 0.5% deoxycholate, 0.1% SDS, and protease inhibitors (4693132001, Roche) (Roche Diagnostics) for 20 min on ice. After centrifugation to remove insoluble material, the proteins in lysate incubated with target protein over night at 4° C. 20 μl Protein A beads (sc-2003, Santacruz) were added to the protein mixture. After these mixture incubated for 4-5 h at 4° C., we washed beads for 3 times with lysis buffer. Then the supernatant was removed and 20 μl loading buffer was added to the deposit beads. The beads coupled proteins were denatured and uncoupled by 95° C. heat for 10 min.
Five extracellular domain truncated TrkB constructs were designed as shown in FIG. 2A and transfected to 293T cell for expression respectively. The lysate were collected. Immunoprecipitation was used to test the antibodies that cannot bind to truncated TrkB conjugated with GFP (see FIG. 2B). […] The others such as TrkB-agoAb418 antibody may bind to D5 domain. Δ1 lacks D1 domain (represented by Cys 1), Δ2 lacks D1 and D2 (represented by LAM) domains, Δ3 lacks D1-D3 (represented by Cys 2) domains, Δ4 lacks D1-D4 (represented by Ig1) domains, and Δ5 lacks D1-D5 (represented by Ig2) domains. “TM” represents transmembrane domain, “C” represents control (blank, empty vector). FL represents full length gene (WT).

A further test concerns the target T2, P75 (Homo sapiens (Human), UniProt P08138 29-250).
T2 construct: also called P75 neurotrophin receptor; P75NTR
T2 sequence: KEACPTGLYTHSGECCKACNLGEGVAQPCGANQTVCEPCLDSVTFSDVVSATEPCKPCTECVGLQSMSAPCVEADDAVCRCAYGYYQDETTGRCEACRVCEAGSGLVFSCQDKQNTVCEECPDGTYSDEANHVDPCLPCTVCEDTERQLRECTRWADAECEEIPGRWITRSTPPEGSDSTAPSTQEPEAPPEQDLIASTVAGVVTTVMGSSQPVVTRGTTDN
In words: ELISA on coated P75, antibody at 10 nM, 1 nM and 0.1 nM. As to the method:
(§1) TrkB agonist antibodies can bind to TrkB specifically but not bind to TrkA, […], TrkC or P75 in ELISA assay. Data of exemplary antibodies TrkB-agoAb104, TrkB-agoAb202, TrkB-agoAb203, TrkB-agoAb303, TrkB-agoAb1104 and TrkB-agoAb2908 are shown in FIG. 1A-1F. 50 μL of […] protein was coated on each well of the plate, and 50 μL of 10 nM, 1 nM or 0.1 nM antibody was added to perform ELISA assay.

The next test deals with T3, TrkA (Homo sapiens (Human), UniProt P04629 33-423).
T3 construct: also called Tyrosine Receptor A
T3 sequence (P04629 33-423 limits assumed): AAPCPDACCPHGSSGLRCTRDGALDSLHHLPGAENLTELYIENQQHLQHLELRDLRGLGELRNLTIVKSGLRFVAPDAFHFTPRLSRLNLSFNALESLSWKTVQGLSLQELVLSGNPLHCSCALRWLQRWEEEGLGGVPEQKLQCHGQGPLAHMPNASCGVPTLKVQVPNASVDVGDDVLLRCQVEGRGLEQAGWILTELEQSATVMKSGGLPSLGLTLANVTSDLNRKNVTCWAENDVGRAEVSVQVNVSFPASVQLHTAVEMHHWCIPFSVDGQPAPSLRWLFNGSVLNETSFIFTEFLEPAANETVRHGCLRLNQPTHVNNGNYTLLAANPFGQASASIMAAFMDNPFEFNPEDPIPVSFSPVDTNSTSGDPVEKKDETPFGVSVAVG
In words: ELISA on coated TrkA, antibody at 10 nM, 1 nM and 0.1 nM. As to the method: as §1

In test [3] the target is T4, human TrkB (recombinant protein coated in ELISA / immobilised in Biacore) (human, UniProt Q16620 30-430, limits assumed).
T4 construct: also called target protein; antigen
T4 sequence (Q16620 30-430 limits assumed): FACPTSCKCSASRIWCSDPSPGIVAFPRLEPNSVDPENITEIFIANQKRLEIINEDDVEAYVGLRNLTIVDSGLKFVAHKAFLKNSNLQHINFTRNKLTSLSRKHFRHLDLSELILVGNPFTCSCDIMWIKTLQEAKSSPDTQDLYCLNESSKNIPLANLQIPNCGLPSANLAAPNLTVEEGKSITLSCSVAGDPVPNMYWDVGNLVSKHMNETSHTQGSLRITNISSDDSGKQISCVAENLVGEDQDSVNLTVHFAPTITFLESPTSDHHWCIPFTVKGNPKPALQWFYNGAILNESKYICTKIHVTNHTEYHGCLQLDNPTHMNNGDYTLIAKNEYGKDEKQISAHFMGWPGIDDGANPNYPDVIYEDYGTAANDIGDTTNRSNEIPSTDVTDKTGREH
In words: Biacore T200 SPR, target protein on CM5 chip, antibody in 7 dilutions as fluid phase. As to the method: Wash CM5 chip in PBS with sonication. Replace the buffer of candidate antibodies and the target protein with the same PBS. The target protein was diluted to 1 μg/μL as the solid phase and the candidate antibodies were serial diluted to 7 dilutions as the fluid phase. After obtaining the signal, Biacore Evaluation Software was used to create fitting curves. ch2<Rmax/10 indicates good confidence level.
Biacore was used to analyze the affinity of antigen-antibody interaction.

Test [4] has as its target T5, human TrkB on CHO cells (hTrkB-CHO cells) (human, UniProt Q16620 32-822). In words: cell-based or functional assay.
Test [5] has as its target T5, human TrkB on CHO cells (hTrkB-CHO …). Briefly: cell-based or functional assay. This is another data set of the same source.
For test [6] the target is unchanged. Briefly: cell-based or functional assay. The source holds these as a separate data set.

T5 sequence (Q16620 32-822): as the sequence (Q16620 32-822) above
Chain of human TrkB on CHO cells (hTrkB-CHO cells) (human) (Q16620 32-822): as above

The molecule “brain-derived neurotrophic factor (BDNF) (from UniProt P23560 129-247) (ligand)” had an EC50 of TrkB Try515 phosphorylation, Alphalisa, hTrkB-CHO cells treated 30 min in test [1] of 1.39 nM.

B1: TrkB-agoAb1104 (antibody, IgG1, V domains shown)
VH: QVQLQQSGAELARPGASVKLSCKASGYTFTRYWMQWVKQRPGQGLEWIGAIYPGDGDTRYTQKFKGKATLTADKSSSTAYMQLSSLASEDSAVYYCAGSGLGRAWFTYWGQGTLVTVSA
VL: DIQMTQSPASLSASVGETVTITCRSSENIYSYLAWYQQKQGKSPQLLVYNAKTLAEGVPSRFSGSGSGTQFSLKINSLQPEDFGSYYCQHHYGPPYTFGGGTKLEIK
With B1, the binding result is recorded as “binds” in test [2], “no binding (tested: 10 nM)” with P75 and “no binding (tested: 10 nM)” with TrkA.

B2: TrkB-agoAb2908 (antibody, IgG1, V domains shown)
VH: QVQLQQSGPELVKPGASVKISCKASGYTFSSSWMNWVKQRPGQGLEWIGRIYPGDGHTNYNGKFKGKATLTADKSSSTAYMQLTSLTSVDSGVYFCARSGYGYGFDCWGQGTTLTVSS
VL: NIVLTQSPASLAVSLGQRATISCRASESVDNYGNSLMHWYQQKPGQPPKLLIYLASNLESGVPARFSGSGSRTDFTLTIDPVEADDAATYYCQQNNEDPPWTFGGGTKLEIKR
Regarding B2, the binding result with P75 and in the test with TrkA was “no binding (tested: 10 nM)” in each case.

B3: TrkB-agoAb5702 (antibody, IgG1, V domains shown)
VH: DVQLVESGGGLVQPGGSRKLSCAASGFTFSSFGMHWVRQAPEKGLEWVAYITSGSNTIYYADTVKGRFTISRDNPKNTLFLQMTSLRSEDTALYYCARDGYFLDALDYWGQGTSVTVSS
VL: DVQITQSPSYLAASPGETITINCRASKSISKYLAWYQEKPGKTNKLLIYSGSTLQSGIPSRFSGSGSGTDFTLTISSLEPEDFAMYYCQQHNEFPLTFGAGTKLELK
Consider B3, for which, in test [2], the binding result is reported as “binds”.

B4: TrkB-agoAb6916 (antibody, V domains shown)
VH: QVQLQQSGTELMKPGASVKISCKAAGYTISSYWVEWVKQRPGHGLEWIGEILPGGGSTNYNEKFKGKATFTADISSNTAYMQLSNLTSEDSAVYYCASSDYWFAYWGQGTLVTVSA
VL: QIVLTQSPAIMSASPGEKVTMTCSASSSINYTHWFQQKPGTSPKRWIYDTSKLASGVPVRFSGSGSGTSYSLTISSMEAEDAATYYCHQRSSYPWTFGGGTKLEIK
notes: Mouse monoclonal antibody
As to B4, in test [2], the binding result was “binds”.

B5: TrkB-agoAbB901 (antibody, IgG2, V domains shown)
VH: EVKLVESGGGLVQPGGSLKLSCAASGFDFSRYWMSWVRQAPGKGLEWIGEINPDGSTINYTPSLKDKFIISRDNAKNTLYLQMSKVRSEDTALYYCARGNYYGSSLAWFAYWGQGTLVTVSA
VL: DIQMTQSPASQSASLGESVTITCLASQTIGTLLAWYQQKPGKSPQLLIYAATTLADGVPSRFRGSGSGTKFSFKISSLQAEDFVSYYCQQFYSTPYTFGGGTKLEIK
notes: also called TrkB-agoAb901
With B5, the binding result in test [2] is on record as “binds”.

B6: TrkB-agoAb203 (antibody, V domains shown)
VH: DVKLVESGGGLVKPGGSLKLSCAASGFTFSSYTMSWVRQTPEKRLEWVATISSGGDYTYFPDSVKGRFTMSRDNAKNALYLQMSSLKSEDTAMYYCTRESGRGDFDYWGQGTTLTVSS
VL: DVLMTQTPLSLPVSLGDQASISCRSSQNIVHSNGNTYLEWYLQKPGQSPNLLIYNVSNRFSGVPDRFSGSGSGTDFTLKISRVEAEDLGVYYCFQGSHFPWTFGGGTKLEIT
For the molecule B6, the equilibrium dissociation constant (Kd) in test [3] is 0.0529 nM. Also, the “in vitro half life (T1/2) from the time course of TrkB phosphorylation, Alphalisa, cells treated at EC50” value in test [4] is greater than 24 h. For the same molecule, the “EC50 of TrkB Try515 phosphorylation, Alphalisa, hTrkB-CHO cells treated 30 min” value in test [5] came to 2.84 nM.

B7: TrkB-agoAb303 (antibody, V domains shown)
VH: DVKLVESGGGLVKPGGSLKLSCAASGFTFSSYTMSWVRQTPEKRLEWVATISSGGDYTYFPDSVKGRFTMSRDNAKNALYLQMSSLKSEDTAMYYCTRESGRGDFDYWGQGTTLTVSS
VL: DVLMTQTPLSLPVSLGDQASISCRSSQNIVHSNGNTYLEWYLQKPGQSPNLLIYNVSNRFSGVPDRFSGSGSGTDFTLKISRVEAEDLGVYYCFQGSHFPWTFGGGTKLEIT
notes: Mouse monoclonal antibody
Consider B7, for which the binding result in the test with P75 and with TrkA was “no binding (tested: 10 nM)” in each case. The “EC50 (read off the curve)” value in test [6] was roughly 1 nM. Also, the Kd in test [3] was 4.02 nM. Besides, the “in vitro half life (T1/2) from the time course of TrkB phosphorylation, Alphalisa, cells treated at EC50” value in test [4] is greater than 24 h. For the same molecule, the “EC50 of TrkB Try515 phosphorylation, Alphalisa, hTrkB-CHO cells treated 30 min” value in test [5] is 1.33 nM.
